What was measured:
CC(C)(C)OO = assay: purified protein; conditions: 500 μM MSH, 4 μM Mtr, 250 μM NADPH, 1 mM EDTA, 50 mM Tris-HCl pH 7.5
MstX (NCgl1216) [1] = target: T1, MstX (NCgl1216) (Corynebacterium glutamicum, UniProt Q8NR03); assay: Mtr-coupled NADPH oxidation at […] nm (thiol transferase assay); type: biochemical; conditions: 100 mM MSH, 300 μM NADPH, 5 μM Mtr, 50 mM potassium phosphate pH 7.6, 25 °C
T1 construct: gene Cgl1264; full length, 359 residues, 40,619 Da; pET28a His6 fusion from E. coli BL21(DE3), tag cleaved; monomer

MstX (NCgl1216) [2] = target: T2, MstX (NCgl1216) (Corynebacterium glutamicum, UniProt Q8NR03, C262S); assay: MALDI-TOF MS of S-mycothiolated protein; type: binding; conditions: covalent; mixed disulfide at Cys67; formed with H2O2
T2 construct: gene Cgl1264

purified protein = substrate: O=C1O[C@H]([C@@H](O)CO)C(=O)C1=O; assay: purified protein; type: biochemical, Corynebacterium glutamicum; conditions: 100 mM MSH, 300 μM NADPH, 5 μM Mtr, 50 mM potassium phosphate pH 7.6, 25 °C
CC(C)(OO)c1ccccc1 = assay: purified protein; conditions: 500 μM MSH, 4 μM Mtr, 250 μM NADPH, 1 mM EDTA, 50 mM Tris-HCl pH 7.5

MstX (NCgl1216) (Corynebacterium glutamicum ATCC 13032)
Km (CC(C)(C)OO): 301.3 ± 46.62 µM | kcat (CC(C)(C)OO): 0.135 ± 0.006 s⁻¹

OCCSSCCO [HED]
Km (MstX (NCgl1216) [1]): 192 ± 30 µM

CC(=O)N[C@@H](CS)C(=O)NC1[C@@H](O[C@@H]2[C@H](O)[C@H](O)[C@@H](O)[C@H](O)[C@H]2O)O[C@H](CO)[C@@H](O)[C@@H]1O (stereo partly drawn) [MSH]
MALDI-TOF MS of S-mycothiolated protein (MstX (NCgl1216) [2]): Pure S-mycothiolated MstX:C262S were confirmed by Matrix-Assisted Laser Desorption/Ionization Time of Flight Mass Spectrometry

B1: MstX (NCgl1216) (Corynebacterium glutamicum ATCC 13032) (protein)
chain: MANTSSDWAGAPQNASADGEFVRDTNYIDDRIVADVPAGSEPIAQEDGTFHWPVEAGRYRLVAARACPWAHRTVITRRLLGLENVISLGLTGPTHDVRSWTFDLDPNHLDPVLQIPRLQDAYFNRFPDYPRGITVPALVEESSKKVVTNDYPSITIDFNLEWKQFHREGAPNLYPAELREEMAPVMKRIFTEVNNGVYRTGFAGSQEAHNEAYKRLWVALDWLEDRLSTRRYLMGDHITEADIRLYPTLVRFDAVYHGHFKCGRNKITEMPNLWGYLRDLFQTPGFGDTTDFTEIKQHYYITHAEINPTRIVPVGPDLSGFATPHGREKLGGSPFAEGVTLPGPIPAGEEVKNPEPFQK
notes: full length, 359 residues, 40,619 Da; pET28a His6 fusion from E. coli BL21(DE3), tag cleaved; monomer
Km (purified protein): 1115 ± 252 µM | kcat (purified protein): 573 ± 44.3 s⁻¹ | kcat/Km (purified protein): 571000 ± 410000 M⁻¹ s⁻¹ | Km (CC(C)(OO)c1ccccc1): 328.1 ± 33.27 µM | kcat (CC(C)(OO)c1ccccc1): 0.153 ± 0.005 s⁻¹

— publication PMC6815410, “Characterization of Xi-class mycothiol S-transferase from Corynebacterium glutamicum and its protective effects in oxidative stress” (Microbial Cell Factories, 2019)
